B1: Nuclear receptor subfamily 5 group A member 2 (Homo sapiens), O00482-2 (parent)
chain: MSSNSDTGDLQESLKHGLTPIVSQFKMVNYSYDEDLEELCPVCGDKVSGYHYGLLTCESCKGFFKRTVQNNKRYTCIENQNCQIDKTQRKRCPYCRFQKCLSVGMKLEAVRADRMRGGRNKFGPMYKRDRALKQQKKALIRANGLKLEAMSQVIQAMPSDLTISSAIQNIHSASKGLPLNHAALPPTDYDRSPFVTSPISMTMPPHGSLQGYQTYGHFPSRAIKSEYPDPYTSSPESIMGYSYMDSYQTSSPASIPHLILELLKCEPDEPQVQAKIMAYLQQEQANRSKHEKLSTFGLMCKMADQTLFSIVEWARSSIFFRELKVDDQMKLLQNCWSELLILDHIYRQVVHGKEGSIFLVTGQQVDYSIIASQAGATLNNLMSHAQELVAKLRSLQFDQREFVCLKFLVLFSLDVKNLENFQLVEGVQEQVNAALLDYTMCNYPQQTEKFGQLLLRLPEIRAISMQAEEYLYYKHLNGDVPYNNLLIEMLHAKRA
B2: Prospero homeobox protein 1 (Homo sapiens), Q92786 (parent)
chain: MPDHDSTALLSRQTKRRRVDIGVKRTVGTASAFFAKARATFFSAMNPQGSEQDVEYSVVQHADGEKSNVLRKLLKRANSYEDAMMPFPGATIISQLLKNNMNKNGGTEPSFQASGLSSTGSEVHQEDICSNSSRDSPPECLSPFGRPTMSQFDMDRLCDEHLRAKRARVENIIRGMSHSPSVALRGNENEREMAPQSVSPRESYRENKRKQKLPQQQQQSFQQLVSARKEQKREERRQLKQQLEDMQKQLRQLQEKFYQIYDSTDSENDEDGNLSEDSMRSEILDARAQDSVGRSDNEMCELDPGQFIDRARALIREQEMAENKPKREGNNKERDHGPNSLQPEGKHLAETLKQELNTAMSQVVDTVVKVFSAKPSRQVPQVFPPLQIPQARFAVNGENHNFHTANQRLQCFGDVIIPNPLDTFGNVQMASSTDQTEALPLVVRKNSSDQSASGPAAGGHHQPLHQSPLSATTGFTTSTFRHPFPLPLMAYPFQSPLGAPSGSFSGKDRASPESLDLTRDTTSLRTKMSSHHLSHHPCSPAHPPSTAEGLSLSLIKSECGDLQDMSEISPYSGSAMQEGLSPNHLKKAKLMFFYTRYPSSNMLKTYFSDVKFNRCITSQLIKWFSNFREFYYIQMEKYARQAINDGVTSTEELSITRDCELYRALNMHYNKANDFEVPERFLEVAQITLREFFNAIIAGKDVDPSWKKAIYKVICKLDSEVPEIFKSPNCLQELLHE

Variants of: B1
Conditions: with prox1_human PROX1, Q92786

| Variant | effect of a mutation on the interaction |
| --- | --- |
| MSSNSDTGDLQESLKHGLTPIVSQFKMVNYSYDEDLEELCPVCGDKVSGYHYGLLTCESCKGFFKRTVQNNKRYTCIENQNCQIDKTQRKRCPYCRFQKCLSVGMKLEAVRADRMRGGRNKFGPMYKRDRALKQQKKALIRANGLKLEAMSQVIQAMPSDLTISSAIQNIHSASKGLPLNHAALPPTDYDRSPFVTSPISMTMPPHGSLQGYQTYGHFPSRAIKSEYPDPYTSSPESIMGYSYMDSYQTSSPASIPHLILELLKCEPDEPQVQAKIMAYLQQEQANRSKHEKLSTFGLMCAMADATLASIVEWARSSIFFRELKVDDQMKLLQNCWSELLILDHIYRQVVHGKEGSIFLVTGQQVDYSIIASQAGATLNNLMSHAQELVAKLRSLQFDQREFVCLKFLVLFSLDVKNLENFQLVEGVQEQVNAALLDYTMCNYPQQTEKFGQLLLRLPEIRAISMQAEEYLYYKHLNGDVPYNNLLIEMLHAKRA [K301A;Q305A;F308A] | decreasing interaction |
| MSSNSDTGDLQESLKHGLTPIVSQFKMVNYSYDEDLEELCPVCGDKVSGYHYGLLTCESCKGFFKRTVQNNKRYTCIENQNCQIDKTQRKRCPYCRFQKCLSVGMKLEAVRADRMRGGRNKFGPMYKRDRALKQQKKALIRANGLKLEAMSQVIQAMPSDLTISSAIQNIHSASKGLPLNHAALPPTDYDRSPFVTSPISMTMPPHGSLQGYQTYGHFPSRAIKSEYPDPYTSSPESIMGYSYMDSYQTSSPASIPHLILELLKCEPDEPQVQAKIMAYLQQEQANRSKHEKLSTFGLMCKMADQTLFSIVEWARSSIFFRELKVAAQAKLLQNCWSELLILDHIYRQVVHGKEGSIFLVTGQQVDYSIIASQAGATLNNLMSHAQELVAKLRSLQFDQREFVCLKFLVLFSLDVKNLENFQLVEGVQEQVNAALLDYTMCNYPQQTEKFGQLLLRLPEIRAISMQAEEYLYYKHLNGDVPYNNLLIEMLHAKRA [D326A;D327A;M329A] | decreasing interaction |
| MSSNSDTGDLQESLKHGLTPIVSQFKMVNYSYDEDLEELCPVCGDKVSGYHYGLLTCESCKGFFKRTVQNNKRYTCIENQNCQIDKTQRKRCPYCRFQKCLSVGMKLEAVRADRMRGGRNKFGPMYKRDRALKQQKKALIRANGLKLEAMSQVIQAMPSDLTISSAIQNIHSASKGLPLNHAALPPTDYDRSPFVTSPISMTMPPHGSLQGYQTYGHFPSRAIKSEYPDPYTSSPESIMGYSYMDSYQTSSPASIPHLILELLKCEPDEPQVAAKIMAYLAAEQANRSKHEKLSTFGLMCKMADQTLFSIVEWARSSIFFRELKVDDQMKLLQNCWSELLILDHIYRQVVHGKEGSIFLVTGQQVDYSIIASQAGATLNNLMSHAQELVAKLRSLQFDQREFVCLKFLVLFSLDVKNLENFQLVEGVQEQVNAALLDYTMCNYPQQTEKFGQLLLRLPEIRAISMQAEEYLYYKHLNGDVPYNNLLIEMLHAKRA [Q273A;Q281A;Q282A] | disrupting interaction |
| MSSNSDTGDLQESLKHGLTPIVSQFKMVNYSYDEDLEELCPVCGDKVSGYHYGLLTCESCKGFFKRTVQNNKRYTCIENQNCQIDKTQRKRCPYCRFQKCLSVGMKLEAVRADRMRGGRNKFGPMYKRDRALKQQKKALIRANGLKLEAMSQVIQAMPSDLTISSAIQNIHSASKGLPLNHAALPPTDYDRSPFVTSPISMTMPPHGSLQGYQTYGHFPSRAIKSEYPDPYTSSPESIMGYSYMDSYQTSSPASIPHLILELLKCEPDEPQVQAKIMAYLQQEQANRSKHEKLSTFGLMCKMADQTLFSIVEWARSSIFFRELKVDDQMKLLQNCWSELLILDHIYRQVVHGKEGSIFLVTGQQVDYSIIASQAGATLNNLMSHAQELVAKLRSLQFDQREFVCLKFLVLFSLDVKNLENFQLVEGVQEQVNAALLDYTMCNYPQQTEKFGQAALRLPEIRAISMQAEEYLYYKHLNGDVPYNNLLIEMLHAKRA [L453A;L454A] | disrupting interaction |

Variants of: B2
Conditions: with NR5A2, O00482-2

| Variant | effect of a mutation on the interaction |
| --- | --- |
| L70A;L73A | disrupting interaction |

From IntAct's records for PubMed 15205472
